Numbered stars: 1 amine (or outer) side, 2 acyl side, 3 side chain; on linkers, the order of the positions; unused ones are H or OH. Bridge positions count the residues as written; N and C are the ends. Side chains are listed from the residue outwards. Ends that are not written are not given here. * marks the point of attachment. C20 diacid = O=C(O)CCCCCCCCCCCCCCCCCCC(=O)*; γGlu = O=C(O)[C@H](CCC(=O)[*:2])N[*:1]; AEEA = NCCOCCOCC(=O)O

The target of assay [1] is T1, rat amylin receptor (rat calcitonin receptor + rat RAMP 3) (rat, UniProt P32214 25-516; Q9JJ73 23-147).
T1 construct: whole, on cells; Membranes of BHK tk'ts 13 cells transiently transfected with the rat calcitonin receptor and rat RAMP 3; also called rAmylin-R; rat amylin 3(a) receptor
T1 sequence (looked up) 1: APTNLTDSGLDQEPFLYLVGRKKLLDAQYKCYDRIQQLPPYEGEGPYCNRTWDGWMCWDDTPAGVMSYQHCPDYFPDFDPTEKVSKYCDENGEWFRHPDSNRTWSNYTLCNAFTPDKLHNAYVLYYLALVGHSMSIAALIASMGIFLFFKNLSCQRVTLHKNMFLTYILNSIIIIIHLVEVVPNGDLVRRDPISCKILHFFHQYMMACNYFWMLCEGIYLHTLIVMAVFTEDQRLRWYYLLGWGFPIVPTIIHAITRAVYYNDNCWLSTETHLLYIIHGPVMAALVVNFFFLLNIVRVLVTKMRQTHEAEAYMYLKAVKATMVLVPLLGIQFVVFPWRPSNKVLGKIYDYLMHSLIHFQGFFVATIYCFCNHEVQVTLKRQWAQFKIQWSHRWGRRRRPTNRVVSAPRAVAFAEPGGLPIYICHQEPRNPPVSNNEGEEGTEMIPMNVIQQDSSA
T1 sequence (looked up) 2: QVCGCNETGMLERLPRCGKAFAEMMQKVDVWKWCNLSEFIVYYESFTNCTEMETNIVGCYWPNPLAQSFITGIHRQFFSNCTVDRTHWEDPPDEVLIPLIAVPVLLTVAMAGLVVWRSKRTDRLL
The assay is described as follows: SPA competition vs 125I-rat amylin, membranes with rat CTR + rat RAMP3 (Assay VI).

In assay [2] the target is T2, rat calcitonin receptor (rat, UniProt P32214 25-516).
T2 construct: whole, on cells; Membranes of BHK tk'ts 13 cells transiently transfected with the rat calcitonin receptor; also called rCTR; rat calcitonin (a) receptor
T2 sequence (looked up): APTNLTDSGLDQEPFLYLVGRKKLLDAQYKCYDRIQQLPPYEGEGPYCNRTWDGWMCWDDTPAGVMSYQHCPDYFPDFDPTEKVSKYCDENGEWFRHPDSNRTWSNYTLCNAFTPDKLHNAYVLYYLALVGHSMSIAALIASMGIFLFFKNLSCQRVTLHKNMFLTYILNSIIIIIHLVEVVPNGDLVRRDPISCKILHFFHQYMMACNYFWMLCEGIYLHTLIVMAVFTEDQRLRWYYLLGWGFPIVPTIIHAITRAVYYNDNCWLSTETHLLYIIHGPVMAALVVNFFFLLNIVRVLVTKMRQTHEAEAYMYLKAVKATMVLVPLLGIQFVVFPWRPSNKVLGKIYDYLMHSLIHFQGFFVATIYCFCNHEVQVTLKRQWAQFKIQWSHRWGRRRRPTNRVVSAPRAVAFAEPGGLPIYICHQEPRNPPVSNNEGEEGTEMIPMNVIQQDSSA
Nature of the assay: IC50 at rCTR divided by IC50 at rAmylin-R (reference).

The target in assay [3] is T2, rat calcitonin receptor. The assay is described as follows: SPA competition vs 125I-calcitonin, membranes with rat CTR (Assay VIII).
In assay [4] the target is T3, human calcitonin receptor (human, UniProt P30988 25-474).
T3 construct: whole, on cells; Membranes of a BHK tk'ts 13 cell line stably transfected with the human calcitonin receptor; also called hCTR; hCT
T3 sequence (looked up): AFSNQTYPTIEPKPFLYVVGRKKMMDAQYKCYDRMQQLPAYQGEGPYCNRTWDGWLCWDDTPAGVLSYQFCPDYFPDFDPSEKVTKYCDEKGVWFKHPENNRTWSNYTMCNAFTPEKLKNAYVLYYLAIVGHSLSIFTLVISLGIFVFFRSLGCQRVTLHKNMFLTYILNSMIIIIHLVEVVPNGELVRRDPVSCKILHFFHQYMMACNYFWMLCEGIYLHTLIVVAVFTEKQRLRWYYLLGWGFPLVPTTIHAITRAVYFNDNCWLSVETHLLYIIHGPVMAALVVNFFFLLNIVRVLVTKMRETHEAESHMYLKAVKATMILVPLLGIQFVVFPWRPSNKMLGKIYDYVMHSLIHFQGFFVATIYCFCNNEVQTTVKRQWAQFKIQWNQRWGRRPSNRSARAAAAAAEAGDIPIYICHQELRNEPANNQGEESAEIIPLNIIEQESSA
Nature of the assay: IC50 at hCTR divided by IC50 at hAmylin-R (reference). The method, boiled down: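 Competition binding by SPA uses membrane preparations (35 ng/μL final) in pH 7.4 Hepes buffer with 1 mM CaCl2 and 5 mM MgCl₂. Incubation lasts 120 min at 25° C, and IC₅₀ comes from one-site fitting.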

B1: N^ε1-[(4S)-4-carboxy-4-[[(4S)-4-carboxy-4-(19-carboxynonadecanoylamino)butanoyl]amino]butanoyl]-[Asp14,Arg17,Pro22,Pro26,Asp35]-h-amylin (peptide)
peptide: K([γGlu-γGlu-C20 diacid])CNTATCATQRLADFLRHSSNPFGAPLSSTNVGSDTY-NH2
modifications: disulfide 2-7; N-terminus assumed
SMILES: CC(C)C[C@H](NC(=O)[C@H](CCCNC(=N)N)NC(=O)[C@H](CCC(N)=O)NC(=O)[C@@H](NC(=O)[C@H](C)NC(=O)[C@@H]1CSSC[C@H](NC(=O)[C@@H](N)CCCCNC(=O)CC[C@H](NC(=O)CC[C@H](NC(=O)CCCCCCCCCCCCCCCCCCC(=O)O)C(=O)O)C(=O)O)C(=O)N[C@@H](CC(N)=O)C(=O)N[C@@H]([C@@H](C)O)C(=O)N[C@@H](C)C(=O)N[C@@H]([C@@H](C)O)C(=O)N1)[C@@H](C)O)C(=O)N[C@@H](C)C(=O)N[C@@H](CC(=O)O)C(=O)N[C@@H](Cc1ccccc1)C(=O)N[C@@H](CC(C)C)C(=O)N[C@@H](CCCNC(=N)N)C(=O)N[C@@H](Cc1c[nH]cn1)C(=O)N[C@@H](CO)C(=O)N[C@@H](CO)C(=O)N[C@@H](CC(N)=O)C(=O)N1CCC[C@H]1C(=O)N[C@@H](Cc1ccccc1)C(=O)NCC(=O)N[C@@H](C)C(=O)N1CCC[C@H]1C(=O)N[C@@H](CC(C)C)C(=O)N[C@@H](CO)C(=O)N[C@@H](CO)C(=O)N[C@H](C(=O)N[C@@H](CC(N)=O)C(=O)N[C@H](C(=O)NCC(=O)N[C@@H](CO)C(=O)N[C@@H](CC(=O)O)C(=O)N[C@H](C(=O)N[C@@H](Cc1ccc(O)cc1)C(N)=O)[C@@H](C)O)C(C)C)[C@@H](C)O
notes: modifications are with respect to human amylin; also called compound 3
As for B1, the IC50 (commonly the concentration that gives 50% inhibition) came to 1 nM in assay [1] and 16.7 nM with rat calcitonin receptor [3]. For the same molecule, in the assay with rat calcitonin receptor [2], the “Ratio rCT/rAmylin binding” value was determined as 16.7. Also, in assay [4], the “Ratio hCT/hAmylin binding” value was found to be 17.3.

B2: N{Alpha-1}-[(4S)-4-carboxy-4-(19-carboxynonadecanoylamino)butanoyl]-[Glu14,Arg17,Pro21,Pro27,Lys34]-h-amylin (peptide)
peptide: {C20 diacid-γGlu}-KCNTATCATQRLAEFLRHSSPNFGAIPSSTNVGKNTY-NH2
modifications: disulfide 2-7
SMILES: CC[C@H](C)[C@H](NC(=O)[C@H](C)NC(=O)CNC(=O)[C@H](Cc1ccccc1)NC(=O)[C@H](CC(N)=O)NC(=O)[C@@H]1CCCN1C(=O)[C@H](CO)NC(=O)[C@H](CO)NC(=O)[C@H](Cc1c[nH]cn1)NC(=O)[C@H](CCCNC(=N)N)NC(=O)[C@H](CC(C)C)NC(=O)[C@H](Cc1ccccc1)NC(=O)[C@H](CCC(=O)O)NC(=O)[C@H](C)NC(=O)[C@H](CC(C)C)NC(=O)[C@H](CCCNC(=N)N)NC(=O)[C@H](CCC(N)=O)NC(=O)[C@@H](NC(=O)[C@H](C)NC(=O)[C@@H]1CSSC[C@H](NC(=O)[C@H](CCCCN)NC(=O)CC[C@H](NC(=O)CCCCCCCCCCCCCCCCCCC(=O)O)C(=O)O)C(=O)N[C@@H](CC(N)=O)C(=O)N[C@@H]([C@@H](C)O)C(=O)N[C@@H](C)C(=O)N[C@@H]([C@@H](C)O)C(=O)N1)[C@@H](C)O)C(=O)N1CCC[C@H]1C(=O)N[C@@H](CO)C(=O)N[C@@H](CO)C(=O)N[C@H](C(=O)N[C@@H](CC(N)=O)C(=O)N[C@H](C(=O)NCC(=O)N[C@@H](CCCCN)C(=O)N[C@@H](CC(N)=O)C(=O)N[C@H](C(=O)N[C@@H](Cc1ccc(O)cc1)C(N)=O)[C@@H](C)O)C(C)C)[C@@H](C)O
notes: modifications are with respect to human amylin; also called compound 36
Turning to B2, the IC50 in assay [1] turned out to be 1.86 nM; with rat calcitonin receptor [3], 60.1 nM. In the assay with rat calcitonin receptor [2], the “Ratio rCT/rAmylin binding” value is 32.4. In addition, the “Ratio hCT/hAmylin binding” value in assay [4] amounted to 15.7.

B3: N^α1-[2-[2-[2-[[2-[2-[2-[[(4S)-4-carboxy-4-(19-carboxynonadecanoylamino)butanoyl]amino]ethoxy]ethoxy]acetyl]amino]ethoxy]ethoxy]acetyl]-[Arg17,Pro21,Pro27]-h-am … (peptide)
peptide: KCNTATCATQRLANFLRHSSPNFGAIPSSTNVGSNTY
modifications: C20 diacid-gGlu-2xOEG on the alpha amino group of the N-terminal residue (Lys 1); disulfide bridge Cys2-Cys7; C-terminal amide
notes: modifications are with respect to human amylin; also called compound 24
Turning to B3, the IC50 in assay [1] stood at 3.01 nM; in the assay with rat calcitonin receptor [3], 350 nM. Also, the “Ratio rCT/rAmylin binding” value with rat calcitonin receptor [2] amounted to 116. Moreover, the “Ratio hCT/hAmylin binding” value in assay [4] came out at 90.

B4: N^ε1-[2-[2-[2-(19-carboxynonadecanoylamino)ethoxy]ethoxy]acetyl]-[Arg17,Pro21,Pro27]-h-amylin (peptide)
peptide: K([AEEA-C20 diacid])CNTATCATQRLANFLRHSSPNFGAIPSSTNVGSNTY-NH2
modifications: disulfide 2-7; N-terminus assumed
SMILES: CC[C@H](C)[C@H](NC(=O)[C@H](C)NC(=O)CNC(=O)[C@H](Cc1ccccc1)NC(=O)[C@H](CC(N)=O)NC(=O)[C@@H]1CCCN1C(=O)[C@H](CO)NC(=O)[C@H](CO)NC(=O)[C@H](Cc1c[nH]cn1)NC(=O)[C@H](CCCNC(=N)N)NC(=O)[C@H](CC(C)C)NC(=O)[C@H](Cc1ccccc1)NC(=O)[C@H](CC(N)=O)NC(=O)[C@H](C)NC(=O)[C@H](CC(C)C)NC(=O)[C@H](CCCNC(=N)N)NC(=O)[C@H](CCC(N)=O)NC(=O)[C@@H](NC(=O)[C@H](C)NC(=O)[C@@H]1CSSC[C@H](NC(=O)[C@@H](N)CCCCNC(=O)COCCOCCNC(=O)CCCCCCCCCCCCCCCCCCC(=O)O)C(=O)N[C@@H](CC(N)=O)C(=O)N[C@@H]([C@@H](C)O)C(=O)N[C@@H](C)C(=O)N[C@@H]([C@@H](C)O)C(=O)N1)[C@@H](C)O)C(=O)N1CCC[C@H]1C(=O)N[C@@H](CO)C(=O)N[C@@H](CO)C(=O)N[C@H](C(=O)N[C@@H](CC(N)=O)C(=O)N[C@H](C(=O)NCC(=O)N[C@@H](CO)C(=O)N[C@@H](CC(N)=O)C(=O)N[C@H](C(=O)N[C@@H](Cc1ccc(O)cc1)C(N)=O)[C@@H](C)O)C(C)C)[C@@H](C)O
notes: modifications are with respect to human amylin; also called compound 43
In the case of B4, the IC50 in assay [1] worked out at 0.11 nM; with rat calcitonin receptor [3] it was 7.6 nM. For the same molecule, in the assay with rat calcitonin receptor [2], the “Ratio rCT/rAmylin binding” value is 69.1. Also, in assay [4], the “Ratio hCT/hAmylin binding” value was found to be 34.7.

B5: N^ε1-[2-[2-[2-[[(4S)-4-carboxy-4-(19-carboxynonadecanoylamino)butanoyl]amino]ethoxy]ethoxy]acetyl]-[Arg17,Pro21,Pro27]-h-amylin (peptide)
peptide: K([AEEA-γGlu-C20 diacid])CNTATCATQRLANFLRHSSPNFGAIPSSTNVGSNTY-NH2
modifications: disulfide 2-7; N-terminus assumed
SMILES: CC[C@H](C)[C@H](NC(=O)[C@H](C)NC(=O)CNC(=O)[C@H](Cc1ccccc1)NC(=O)[C@H](CC(N)=O)NC(=O)[C@@H]1CCCN1C(=O)[C@H](CO)NC(=O)[C@H](CO)NC(=O)[C@H](Cc1c[nH]cn1)NC(=O)[C@H](CCCNC(=N)N)NC(=O)[C@H](CC(C)C)NC(=O)[C@H](Cc1ccccc1)NC(=O)[C@H](CC(N)=O)NC(=O)[C@H](C)NC(=O)[C@H](CC(C)C)NC(=O)[C@H](CCCNC(=N)N)NC(=O)[C@H](CCC(N)=O)NC(=O)[C@@H](NC(=O)[C@H](C)NC(=O)[C@@H]1CSSC[C@H](NC(=O)[C@@H](N)CCCCNC(=O)COCCOCCNC(=O)CC[C@H](NC(=O)CCCCCCCCCCCCCCCCCCC(=O)O)C(=O)O)C(=O)N[C@@H](CC(N)=O)C(=O)N[C@@H]([C@@H](C)O)C(=O)N[C@@H](C)C(=O)N[C@@H]([C@@H](C)O)C(=O)N1)[C@@H](C)O)C(=O)N1CCC[C@H]1C(=O)N[C@@H](CO)C(=O)N[C@@H](CO)C(=O)N[C@H](C(=O)N[C@@H](CC(N)=O)C(=O)N[C@H](C(=O)NCC(=O)N[C@@H](CO)C(=O)N[C@@H](CC(N)=O)C(=O)N[C@H](C(=O)N[C@@H](Cc1ccc(O)cc1)C(N)=O)[C@@H](C)O)C(C)C)[C@@H](C)O
notes: modifications are with respect to human amylin; also called compound 41
B5: the half-inhibitory concentration (IC50) in assay [1] is 1.37 nM; in the assay with rat calcitonin receptor [3] it was 74.1 nM. Moreover, the “Ratio rCT/rAmylin binding” value in the assay with rat calcitonin receptor [2] is 54. Besides, the “Ratio hCT/hAmylin binding” value in assay [4] stood at 49.9.

Source of the values: patent US20140087995A1 (published 2014).
